Source: article PMC6555819, “Comprehensive study of nuclear receptor DNA binding provides a revised framework for understanding receptor specificity”

Experiments:
PPARa:RXRa = PPARa:RXRa (Homo sapiens, UniProt Q07869;P19793 full;full); assay: no ligand; PBM; 270 nM : 90 nM RXRa; PBS pH 7.4, 2% milk, 0.02% Triton X-100, 1 mM DTT, BSA, 0.4 mg/ml salmon testes DNA; conditions: tags: GST kept;His cleaved; copies: 1;1; label: surface-attached array probe
Procedure, shortened: (§1)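 Antibodies against each partner of ligand-free nuclear receptor dimers (one per run) detected binding on custom Agilent 4×180K protein-binding microarrays after 1 h incubation. The double-stranded probes had 34-nt variable regions carrying direct-repeat seeds, single-nucleotide variants, half-site ablations and random human genomic background sequences. Binding z-scores, from regression-normalized fluorescence, use the random background probes as reference.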

RARg:RXRa = RARg:RXRa (Homo sapiens, UniProt P13631;P19793 full;full); assay: as above; conditions: tags: His kept;His cleaved; copies: 1;1; label: surface-attached array probe
RARg:RXRa, sequence (P13631 whole entry, chain 1 of 2): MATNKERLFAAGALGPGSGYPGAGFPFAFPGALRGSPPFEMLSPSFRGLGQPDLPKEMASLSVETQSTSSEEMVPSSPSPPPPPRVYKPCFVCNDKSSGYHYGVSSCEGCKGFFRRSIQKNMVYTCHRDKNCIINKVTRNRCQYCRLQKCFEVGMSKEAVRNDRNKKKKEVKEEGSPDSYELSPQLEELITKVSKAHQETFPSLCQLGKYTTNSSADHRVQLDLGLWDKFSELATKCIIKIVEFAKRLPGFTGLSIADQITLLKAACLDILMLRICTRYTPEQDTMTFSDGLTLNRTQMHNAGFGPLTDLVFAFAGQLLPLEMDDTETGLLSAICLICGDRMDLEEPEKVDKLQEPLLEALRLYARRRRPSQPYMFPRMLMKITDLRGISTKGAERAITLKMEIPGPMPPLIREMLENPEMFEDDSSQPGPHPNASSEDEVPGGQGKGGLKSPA
RARg:RXRa, sequence (P19793 whole entry, chain 2 of 2): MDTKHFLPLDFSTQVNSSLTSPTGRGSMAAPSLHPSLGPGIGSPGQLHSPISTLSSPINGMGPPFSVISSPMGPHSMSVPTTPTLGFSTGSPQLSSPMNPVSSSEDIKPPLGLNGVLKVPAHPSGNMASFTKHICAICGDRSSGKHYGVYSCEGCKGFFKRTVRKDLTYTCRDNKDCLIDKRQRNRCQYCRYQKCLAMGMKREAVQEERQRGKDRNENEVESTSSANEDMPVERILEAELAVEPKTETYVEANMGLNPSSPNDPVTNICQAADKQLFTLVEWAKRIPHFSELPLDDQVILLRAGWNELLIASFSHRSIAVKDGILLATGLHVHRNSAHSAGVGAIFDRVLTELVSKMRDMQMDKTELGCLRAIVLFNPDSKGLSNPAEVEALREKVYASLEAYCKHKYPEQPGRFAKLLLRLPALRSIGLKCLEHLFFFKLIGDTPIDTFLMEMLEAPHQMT
Procedure, shortened: as §1

LXRa:RXRa = LXRa:RXRa (Homo sapiens, UniProt Q13133;P19793 full;full); assay: as above; conditions: tags: His kept;His cleaved; copies: 1;1; label: surface-attached array probe
LXRa:RXRa, sequence (Q13133 whole entry, chain 1 of 2): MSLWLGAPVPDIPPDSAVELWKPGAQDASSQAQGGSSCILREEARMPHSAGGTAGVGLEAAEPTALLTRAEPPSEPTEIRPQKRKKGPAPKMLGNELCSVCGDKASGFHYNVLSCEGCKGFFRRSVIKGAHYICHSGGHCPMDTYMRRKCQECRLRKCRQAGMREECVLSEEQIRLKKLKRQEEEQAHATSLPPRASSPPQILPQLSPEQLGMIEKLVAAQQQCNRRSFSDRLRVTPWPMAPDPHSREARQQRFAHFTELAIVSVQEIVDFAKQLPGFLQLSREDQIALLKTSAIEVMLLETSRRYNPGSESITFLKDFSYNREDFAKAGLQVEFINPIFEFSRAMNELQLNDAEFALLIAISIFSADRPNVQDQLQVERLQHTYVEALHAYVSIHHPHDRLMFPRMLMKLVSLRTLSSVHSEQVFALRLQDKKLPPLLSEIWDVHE
LXRa:RXRa, sequence (P19793 whole entry, chain 2 of 2): as the sequence (P19793 whole entry, chain 2 of 2) above
Procedure, shortened: as §1

LXRb:RXRa = LXRb:RXRa (Homo sapiens, UniProt P55055;P19793 full;full); assay: as above; conditions: tags: His kept;His cleaved; copies: 1;1; label: surface-attached array probe
LXRb:RXRa, sequence (P55055 whole entry, chain 1 of 2): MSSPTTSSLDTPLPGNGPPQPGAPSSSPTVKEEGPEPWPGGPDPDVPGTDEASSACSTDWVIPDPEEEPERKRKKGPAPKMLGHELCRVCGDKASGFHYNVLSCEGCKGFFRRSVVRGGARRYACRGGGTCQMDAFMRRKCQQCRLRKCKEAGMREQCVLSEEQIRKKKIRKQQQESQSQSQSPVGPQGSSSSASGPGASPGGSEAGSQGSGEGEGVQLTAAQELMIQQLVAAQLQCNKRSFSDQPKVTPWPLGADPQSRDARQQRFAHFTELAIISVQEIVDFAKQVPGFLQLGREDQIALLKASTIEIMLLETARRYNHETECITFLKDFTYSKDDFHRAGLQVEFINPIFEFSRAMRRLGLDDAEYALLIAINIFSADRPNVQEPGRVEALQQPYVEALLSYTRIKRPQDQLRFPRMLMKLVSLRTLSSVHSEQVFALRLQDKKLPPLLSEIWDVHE
LXRb:RXRa, sequence (P19793 whole entry, chain 2 of 2): as the sequence (P19793 whole entry, chain 2 of 2) above
Procedure, shortened: as §1

FXR:RXRa = FXR:RXRa (Homo sapiens, UniProt Q96RI1;P19793 full;full); assay: as above; conditions: tags: His kept;His cleaved; copies: 1;1; label: surface-attached array probe
FXR:RXRa, sequence (Q96RI1 whole entry, chain 1 of 2): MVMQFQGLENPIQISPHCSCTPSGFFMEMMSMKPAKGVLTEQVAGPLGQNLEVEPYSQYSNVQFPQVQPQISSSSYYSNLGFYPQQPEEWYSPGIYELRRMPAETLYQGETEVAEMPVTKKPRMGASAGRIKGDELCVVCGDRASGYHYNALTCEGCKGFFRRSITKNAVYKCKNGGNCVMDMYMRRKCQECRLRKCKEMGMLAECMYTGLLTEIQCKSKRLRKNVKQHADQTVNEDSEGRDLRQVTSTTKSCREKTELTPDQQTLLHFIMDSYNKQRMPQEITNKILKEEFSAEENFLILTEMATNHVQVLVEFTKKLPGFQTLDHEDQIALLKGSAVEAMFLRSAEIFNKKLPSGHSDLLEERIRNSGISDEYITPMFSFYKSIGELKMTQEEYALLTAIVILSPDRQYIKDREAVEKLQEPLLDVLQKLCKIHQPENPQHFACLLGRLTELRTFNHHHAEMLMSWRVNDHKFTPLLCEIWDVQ
FXR:RXRa, sequence (P19793 whole entry, chain 2 of 2): as the sequence (P19793 whole entry, chain 2 of 2) above
Procedure, shortened: as §1

RARb:RXRa = RARb:RXRa (Homo sapiens, UniProt P10826;P19793 full;full); assay: as above; conditions: tags: His kept;His cleaved; copies: 1;1; label: surface-attached array probe
RARb:RXRa, sequence (P10826 whole entry, chain 1 of 2): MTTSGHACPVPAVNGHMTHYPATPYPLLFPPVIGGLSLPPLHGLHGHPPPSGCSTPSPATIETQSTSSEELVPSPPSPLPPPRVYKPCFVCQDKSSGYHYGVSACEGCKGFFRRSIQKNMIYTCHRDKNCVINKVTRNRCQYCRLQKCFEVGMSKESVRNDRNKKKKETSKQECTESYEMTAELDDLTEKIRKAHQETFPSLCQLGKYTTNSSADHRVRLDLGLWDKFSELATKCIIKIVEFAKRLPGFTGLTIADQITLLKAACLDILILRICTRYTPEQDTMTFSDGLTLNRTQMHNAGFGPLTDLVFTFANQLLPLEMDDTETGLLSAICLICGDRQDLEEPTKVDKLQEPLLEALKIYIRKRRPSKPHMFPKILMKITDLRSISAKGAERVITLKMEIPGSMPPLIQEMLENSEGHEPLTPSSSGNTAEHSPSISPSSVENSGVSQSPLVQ
RARb:RXRa, sequence (P19793 whole entry, chain 2 of 2): as the sequence (P19793 whole entry, chain 2 of 2) above
Procedure, shortened: as §1

PXR:RXRa = PXR:RXRa (Homo sapiens, UniProt O75469;P19793 full;full); assay: as above; conditions: tags: His kept;His cleaved; copies: 1;1; label: surface-attached array probe
PXR:RXRa, sequence (O75469 whole entry, chain 1 of 2): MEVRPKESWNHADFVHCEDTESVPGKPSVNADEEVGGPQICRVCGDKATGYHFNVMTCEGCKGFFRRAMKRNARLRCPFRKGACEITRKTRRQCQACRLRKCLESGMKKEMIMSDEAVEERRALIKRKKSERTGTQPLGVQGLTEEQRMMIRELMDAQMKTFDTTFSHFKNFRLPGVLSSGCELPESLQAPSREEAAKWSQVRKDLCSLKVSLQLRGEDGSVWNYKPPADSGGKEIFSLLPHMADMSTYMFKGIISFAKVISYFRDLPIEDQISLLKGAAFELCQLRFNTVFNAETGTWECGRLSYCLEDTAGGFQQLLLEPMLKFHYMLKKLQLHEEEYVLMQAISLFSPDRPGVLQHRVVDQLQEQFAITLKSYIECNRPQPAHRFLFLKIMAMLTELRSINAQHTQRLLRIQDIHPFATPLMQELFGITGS
PXR:RXRa, sequence (P19793 whole entry, chain 2 of 2): as the sequence (P19793 whole entry, chain 2 of 2) above
Procedure, shortened: as §1

VDR:RXRa = VDR:RXRa (Homo sapiens, UniProt P11473;P19793 full;full); assay: as above; conditions: tags: His kept;His cleaved; copies: 1;1; label: surface-attached array probe
VDR:RXRa, sequence (P11473 whole entry, chain 1 of 2): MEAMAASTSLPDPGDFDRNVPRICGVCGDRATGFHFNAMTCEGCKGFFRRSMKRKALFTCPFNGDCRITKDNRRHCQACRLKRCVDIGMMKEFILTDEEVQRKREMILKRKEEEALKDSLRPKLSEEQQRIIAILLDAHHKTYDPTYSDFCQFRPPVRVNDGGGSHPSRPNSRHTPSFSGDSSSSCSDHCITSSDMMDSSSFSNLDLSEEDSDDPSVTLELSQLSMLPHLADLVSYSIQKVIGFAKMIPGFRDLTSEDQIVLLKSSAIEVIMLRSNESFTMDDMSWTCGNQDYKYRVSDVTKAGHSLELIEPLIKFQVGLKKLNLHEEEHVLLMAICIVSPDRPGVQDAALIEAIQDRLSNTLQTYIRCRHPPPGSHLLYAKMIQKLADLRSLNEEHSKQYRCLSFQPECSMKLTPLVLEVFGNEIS
VDR:RXRa, sequence (P19793 whole entry, chain 2 of 2): as the sequence (P19793 whole entry, chain 2 of 2) above
Procedure, shortened: as §1

RXRa = RXRa (Homo sapiens, UniProt P19793); assay: no ligand; PBM; 180 nM; PBS pH 7.4, 2% milk, 0.02% Triton X-100, 1 mM DTT, BSA, 0.4 mg/ml salmon testes DNA; conditions: tags: His cleaved; chain copies: 2; label: surface-attached array probe
RXRa, sequence (P19793 whole entry): as the sequence (P19793 whole entry, chain 2 of 2) above

PPARa:RXRa, sequence (Q07869 whole entry, chain 1 of 2): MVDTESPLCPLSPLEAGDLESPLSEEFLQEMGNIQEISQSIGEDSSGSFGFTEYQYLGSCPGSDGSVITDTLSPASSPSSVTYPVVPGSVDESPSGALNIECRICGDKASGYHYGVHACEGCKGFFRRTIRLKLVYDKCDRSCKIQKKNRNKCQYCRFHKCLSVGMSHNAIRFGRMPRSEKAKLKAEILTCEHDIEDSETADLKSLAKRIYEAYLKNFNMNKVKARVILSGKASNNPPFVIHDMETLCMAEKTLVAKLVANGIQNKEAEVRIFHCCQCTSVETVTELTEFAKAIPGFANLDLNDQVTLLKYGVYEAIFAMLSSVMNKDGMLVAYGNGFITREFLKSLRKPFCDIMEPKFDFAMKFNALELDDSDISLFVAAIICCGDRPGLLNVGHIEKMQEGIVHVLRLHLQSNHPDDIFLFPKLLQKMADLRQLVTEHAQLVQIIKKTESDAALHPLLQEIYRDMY
PPARa:RXRa, sequence (P19793 whole entry, chain 2 of 2): as the sequence (P19793 whole entry, chain 2 of 2) above

B1: NRC3_wobSeed73_DR3_C7A_o1 (dsDNA)
DNA 1: GCCAAAATAGGTCACAGAGGTCAAAGTCCGTGCGTAGCGATTGACAGCGTAGAATGAAGG
DNA 2: CCTTCATTCTACGCTGTCAATCGCTACGCACGGACTTTGACCTCTGTGACCTATTTTGGC
binding signal (PPARa:RXRa): 6.98 PBM z-score against 500 random probes | binding signal (RARg:RXRa): 7.78 PBM z-score against 500 random probes | binding signal (LXRa:RXRa): 7.23 PBM z-score against 500 random probes | binding signal (LXRb:RXRa): 7.08 PBM z-score against 500 random probes | binding signal (FXR:RXRa): 8.03 PBM z-score against 500 random probes | binding signal (RARb:RXRa): 5.84 PBM z-score against 500 random probes

B2: NRC3_wobSeed66_DR2_A17G_o1 (dsDNA)
DNA 1: GCAATACAGGGTCACTGGGCCAGAGTAGGTACGAATGCGATTGACAGCGTAGAATGAAGG
DNA 2: CCTTCATTCTACGCTGTCAATCGCATTCGTACCTACTCTGGCCCAGTGACCCTGTATTGC
binding signal (PXR:RXRa): 3.74 PBM z-score against 500 random probes

B3: NRC3_wobSeed113_DR4_T8G_o1 (dsDNA)
DNA 1: GCATATGGAGGTTAGCTGGGGTCATTCAGACTAGGCGCGATTGACAGCGTAGAATGAAGG
DNA 2: CCTTCATTCTACGCTGTCAATCGCGCCTAGTCTGAATGACCCCAGCTAACCTCCATATGC
binding signal (PXR:RXRa): 6.8 PBM z-score against 500 random probes

B4: NRC3_wobSeed82_DR3_G14A_o1 (dsDNA)
DNA 1: GCATCGAAAGGTCAACGAGGTGAGTATACACCGTTTGCGATTGACAGCGTAGAATGAAGG
DNA 2: CCTTCATTCTACGCTGTCAATCGCAAACGGTGTATACTCACCTCGTTGACCTTTCGATGC
binding signal (PPARa:RXRa): 6.87 PBM z-score against 500 random probes | binding signal (RARg:RXRa): 7.92 PBM z-score against 500 random probes | binding signal (LXRa:RXRa): 7.22 PBM z-score against 500 random probes | binding signal (LXRb:RXRa): 6.3 PBM z-score against 500 random probes | binding signal (FXR:RXRa): 8.61 PBM z-score against 500 random probes | binding signal (VDR:RXRa): 7.33 PBM z-score against 500 random probes | binding signal (RARb:RXRa): 6.1 PBM z-score against 500 random probes | binding signal (RXRa): 8.25 PBM z-score against 500 random probes

B5: NRC3_random_hg19_428_o1 (dsDNA)
DNA 1: GCGAGATTGGAAGGCTTCCAGATGCAAGGCTGTGGCGCGATTGACAGCGTAGAATGAAGG
DNA 2: CCTTCATTCTACGCTGTCAATCGCGCCACAGCCTTGCATCTGGAAGCCTTCCAATCTCGC
binding signal (LXRa:RXRa): -1.14 PBM z-score against 500 random probes | binding signal (LXRb:RXRa): -1.31 PBM z-score against 500 random probes | binding signal (VDR:RXRa): -1.12 PBM z-score against 500 random probes

B6: NRC3_wobSeed89_DR3_G16T_o1 (dsDNA)
DNA 1: GCCTATGTAGGTTAATGGGGTCATTCAGTTTGAAAGGCGATTGACAGCGTAGAATGAAGG
DNA 2: CCTTCATTCTACGCTGTCAATCGCCTTTCAAACTGAATGACCCCATTAACCTACATAGGC
binding signal (PXR:RXRa): 6.66 PBM z-score against 500 random probes

B7: NRC3_wobSeed106_DR4_G23C_o1 (dsDNA)
DNA 1: GCCTCGAAAGGTCGGTTGAGGTCAGTATACGGATAAGCGATTGACAGCGTAGAATGAAGG
DNA 2: CCTTCATTCTACGCTGTCAATCGCTTATCCGTATACTGACCTCAACCGACCTTTCGAGGC
binding signal (PXR:RXRa): 6.52 PBM z-score against 500 random probes

B8: NRC3_wobSeed37_DR1_C7A_o1 (dsDNA)
DNA 1: GCCGTCAAAGGTCAAAGGTCAGTGAAGAGATGACGGGCGATTGACAGCGTAGAATGAAGG
DNA 2: CCTTCATTCTACGCTGTCAATCGCCCGTCATCTCTTCACTGACCTTTGACCTTTGACGGC
binding signal (PPARa:RXRa): 7.54 PBM z-score against 500 random probes | binding signal (RARg:RXRa): 9.63 PBM z-score against 500 random probes | binding signal (LXRa:RXRa): 7.91 PBM z-score against 500 random probes | binding signal (LXRb:RXRa): 7.7 PBM z-score against 500 random probes | binding signal (FXR:RXRa): 9.14 PBM z-score against 500 random probes | binding signal (VDR:RXRa): 7.1 PBM z-score against 500 random probes | binding signal (RARb:RXRa): 6.32 PBM z-score against 500 random probes | binding signal (RXRa): 11 PBM z-score against 500 random probes

B9: NRC3_wobSeed37_DR1_C7T_o1 (dsDNA)
DNA 1: GCCGTCTAAGGTCAAAGGTCAGTGAAGAGATGACGGGCGATTGACAGCGTAGAATGAAGG
DNA 2: CCTTCATTCTACGCTGTCAATCGCCCGTCATCTCTTCACTGACCTTTGACCTTAGACGGC
binding signal (PXR:RXRa): 7.41 PBM z-score against 500 random probes
